Assays:
[1] = Pharmacokinetics in mice expressing human PCSK9 by AAV; assay type: in vivo, mouse; conditions: 30 mg/kg intravenous
Experimental: Serum concentrations of antibody were determined using a sandwich ELISA assay. Polyclonal goat anti-human Fc IgG and an HRP-labeled goat anti-human IgG Fcγ polyclonal reagent (both from Jackson ImmunoResearch Laboratories Inc, West Grove, Pa.) were used as the capture and the detection antibody, respectively. A 3,3′,5,5′ tetramethylbenzidine (TMB) substrate solution reacted with peroxide, and in the presence of horse radish peroxidase (HRP), created a colorimetric signal that was proportional to the amount of the respective anti-PCSK9 antibody bound by the capture reagent. The intensity of the color (optical density, OD) was measured at 450 nm minus 650 nm using a microplate reader (Spectra Max Plus 384). Data was analyzed using Watson version 7.0.0.01 (Thermo Scientific, Waltham, Mass.) data reduction package with a Logistic (auto-estimate) regression of separately prepared standard curves. The lower limit of quantification (LLOQ) for the assay was […].
Non-compartmental analysis (NCA) was performed on serum concentrations using the pre-determined nominal time points for each subject using WinNonlin Enterprise, version 5.1.1 (Pharsight, St. Louis, Mo.). […] NCA parameters reported include: apparent half-life (t½), area under the serum concentration-time curve from time zero to the last measured concentration (AUC0-t), and apparent serum clearance (CL0-t). […]

[2] = system: PCSK9; assay: Serum lipids after a single subcutaneous dose in cynomolgus monkeys; assay type: in vivo, cynomolgus monkey; conditions: 0.5 mg/kg single SC
Description: Briefly, naive male cynomolgus monkeys were acclimated to their environment for at least 2 weeks prior to experimentation. Animals were randomized into treatment groups based on a pre-screen of their serum TC, HDL-C, LDL-C, and triglyceride levels, and their body weight. After 1 week, animals were fasted overnight, and bled from the peripheral vasculature (cephalic or saphenous vein), for measurement of baseline serum lipid levels at a time point designated T=0. […] Fasting blood samples were then collected from animals at designated time points over a 45 day period.
At specified time points, blood was collected from animals under overnight fasting conditions from the peripheral vasculature (cephalic or saphenous vein). Whole blood was allowed to coagulate for 30 minutes at room temperature. Following centrifugation at 3,000 rpm for 20 minutes, serum was collected. Direct serum cholesterol analysis was performed using the Cobas Integra 400 analyzer (Roche Diagnostics Inc, Indianapolis, Ind.). Apolipoprotein B serum levels were determined at specified time points (day 0, 3, 6, 15, 24 and 33) by Anilytics, Md., with the following methodology. A 17 μL aliquot of the sample (no preparation) was used for analysis with a Hitachi 717 Analyzer using a 6 points standard curve. If the initial value of the sample was higher than the standard curve linearity, then the sample was diluted and repeated with the result multiplied by the appropriate dilution factor. The reagents for the assay (APO-B Reagent Kit #86071, Antibody Set #86060, Control Set #86103) were obtained from DiaSorin (Stillwater, Minn.).
A statistical model that considers baseline as a covariate and treatment group as a fixed effect was fit to the log transformed response at each time point for LDL-C, HDL-C, TC, and triglycerides. Tukey's multiple comparison correction was applied to adjust the pair wise comparisons at each time point. The statistical significance was evaluated at alpha=0.05 using adjusted p-values.

[3] = Viscosity measurement of 11F1 formulations; assay type: physicochemical; conditions: 10 mM sodium acetate
Experimental: Concentration determination was then carried out by measuring absorbance at A280 using an Agilent 8453 Spectrophotometer (Santa Clara, Calif.). Protein concentration was calculated using the appropriate extinction coefficient. The appropriate amount of buffer was then added to the sample to dilute it back down to the desired concentration and another A280 was performed to obtain the final concentration for the experiment. Excipients were added individually to the 11F1 formulations samples derived from the high concentration stock solutions.
Viscosity was measured using Brookfield LV-DVII cone and plate viscometer (Middleboro, Mass.) with a CPE-40 spindle with matching sample cup temperature regulated by a circulating water bath at constant 25° C. 500 μL of sample was added to sample cup with positive displacement pipettor. […] At this point the rotational speed was stopped and a viscosity reading was generated by Rheocalc software.
High concentration protein formulations were sometimes measured using a different type of viscometer, an Anton Paar Physica Model MCR300 with a CP50-1 spindle. A 600 uL sample is used in this instrument and Rheoplus software version 3.4 was use to calculate solution viscosity. There was not a large difference in measurements using either viscometer.

Question: Which “AUC0-t exposures, estimated CL0-t and apparent half-lives of 11F1 vs 8A3” value [1] does the source give for “11F1: anti-PCSK9 ABP, light/heavy variable region SEQ ID NO 465/463 [Antibody 11F1]” here?
Answer: equivalent

Question: And the “TC returned to levels similar to control animals” value [2]?
Answer: ≤ 27 days

Question: And the “maximal LDL-C lowering as compared to control animals” value [2]?
Answer: 57%

Question: And the “maximal TC lowering as compared to control animals” value [2]?
Answer: 27%

Question: What about the “maximal lowering of LDL-C vs anti-KLH IgG2 control at the same time point (change)” value [2] of the same substance?
Answer: −57%

Question: And the “serum HDL-C vs anti-KLH IgG2 control” value [2]?
Answer: No statistically significant changes

Question: And the “time of maximal LDL-C lowering after injection” value [2]?
Answer: 9 days

Question: What about the “time of maximal TC lowering after injection” value [2] of the same substance?
Answer: 9 days

Question: What about the “triglycerides levels vs anti-KLH IgG2 control” value [2] of the same substance?
Answer: No statistically significant changes

Question: What about the “serum ApoB vs anti-KLH IgG2 control” value ([2]; days 3, 6, 15, 24 and 33) of the same substance?
Answer: ApoB lowering at days 3 to 24

Question: And the “HDL-C or triglyceride levels vs anti-KLH IgG2 control” value ([2]; each time point, alpha=0.05)?
Answer: not significantly different

Question: What about the “Viscosity @ 25 C.” value ([3]; 145 mg/mL, 9% Sucrose 0.01% PS 20, pH 5.2) of the same substance?
Answer: 14 cP

Question: And the “Viscosity @ 25 C.” value ([3]; 147 mg/mL, 150 mM Methionine, 3% Sucrose, 0.01% PS 20, pH 5.2)?
Answer: 13 cP

Question: And the “Viscosity @ 25 C.” value ([3]; 170 mg/mL, 250 mM Praline, 0.01% PS 20, pH 5.0)?
Answer: 18 cP

Question: And the “Viscosity @ 25 C.” value ([3]; 172 mg/mL, 9% Sucrose 0.01% PS 20, pH 5.2)?
Answer: 23 cP

Question: What about the “Viscosity @ 25 C.” value ([3]; 186 mg/mL, 9% Sucrose 0.01% PS 20, pH 5.2) of the same substance?
Answer: 45 cP

Question: What about the “Viscosity @ 25 C.” value ([3]; 191 mg/mL, 9% Sucrose 0.01% PS 20, pH 5.2) of the same substance?
Answer: 53 cP

Question: And the “Viscosity @ 25 C.” value ([3]; 192 mg/mL, 150 mM Methionine, 3% Sucrose, 0.01% PS 20, pH 5.2)?
Answer: 31 cP

Question: What about the “Viscosity @ 25 C.” value ([3]; 196 mg/mL, 250 mM Praline, 0.01% PS 20, pH 5.0) of the same substance?
Answer: 36 cP

Question: What about the “Viscosity @ 25 C.” value ([3]; 211 mg/mL, 9% Sucrose, 100 mM Arginine, pH 5.2) of the same substance?
Answer: 26 cP

Question: And the “Viscosity @ 25 C.” value ([3]; 211 mg/mL, 9% Sucrose, 150 mM Alanine, pH 5.2)?
Answer: 43 cP

Question: And the “Viscosity @ 25 C.” value ([3]; 211 mg/mL, 9% Sucrose, 150 mM Glycine, pH 5.2)?
Answer: 45 cP

Question: What about the “Viscosity @ 25 C.” value ([3]; 211 mg/mL, 9% Sucrose, 150 mM Serine, pH 5.2) of the same substance?
Answer: 48 cP

Question: And the “Viscosity @ 25 C.” value ([3]; 211 mg/mL, 9% Sucrose, 150 mM sodium chloride, pH 5.2)?
Answer: 62 cP

Question: What about the “Viscosity @ 25 C.” value ([3]; 211 mg/mL, 9% Sucrose, pH 5.2) of the same substance?
Answer: 73 cP

Question: What about the “Viscosity @ 25 C.” value ([3]; 211 mg/mL, pH 5.2) of the same substance?
Answer: 58 cP

Question: What about the “Viscosity @ 25 C.” value ([3]; 212 mg/mL, 150 mM Methionine, 3% Sucrose, 0.01% PS 20, pH 5.2) of the same substance?
Answer: 54 cP

Question: And the “Viscosity @ 25 C.” value ([3]; 212 mg/mL, 250 mM Praline, 0.01% PS 20, pH 5.0)?
Answer: 47 cP

Question: And the “Viscosity @ 25 C.” value ([3]; 224 mg/mL, 9% Sucrose 0.01% PS 20, pH 5.2)?
Answer: 133 cP

Question: What about the “Viscosity @ 25 C.” value ([3]; […], 150 mM Methionine, 3% Sucrose, 0.01% PS 20, pH 5.2) of the same substance?
Answer: 18 cP

Question: What about the “Viscosity @ 25 C.” value ([3]; […], 9% Sucrose 0.01% PS 20, pH 5.2) of the same substance?
Answer: 8 cP
